From patent US20250011363A1, “OPTIMIZED SHORTENED PEPTIDE THAT BINDS TO ACETYLCHOLINE RECEPTOR, AND USE THEREOF” (SKINMED CO., LTD., priority 2021, published 2025)

biological target: acetylcholine receptor (Homo sapiens, UniProt P02708); test: SPR binding affinity (RU) of optimized 5mer/6mer/7mer peptides, Examples 6-7; conditions: 6mer-1 Top sequence; SPR; peptides tested at 10 μM
Summary of the method: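 SPR, peptides at 10 μM; read-out = response units (RU). Sequences drawn from top- or bottom-frequency amino acid combinations, 5mer/6mer-1/6mer-2 libraries.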

acetylcholine receptor, sequence (P02708 21-457): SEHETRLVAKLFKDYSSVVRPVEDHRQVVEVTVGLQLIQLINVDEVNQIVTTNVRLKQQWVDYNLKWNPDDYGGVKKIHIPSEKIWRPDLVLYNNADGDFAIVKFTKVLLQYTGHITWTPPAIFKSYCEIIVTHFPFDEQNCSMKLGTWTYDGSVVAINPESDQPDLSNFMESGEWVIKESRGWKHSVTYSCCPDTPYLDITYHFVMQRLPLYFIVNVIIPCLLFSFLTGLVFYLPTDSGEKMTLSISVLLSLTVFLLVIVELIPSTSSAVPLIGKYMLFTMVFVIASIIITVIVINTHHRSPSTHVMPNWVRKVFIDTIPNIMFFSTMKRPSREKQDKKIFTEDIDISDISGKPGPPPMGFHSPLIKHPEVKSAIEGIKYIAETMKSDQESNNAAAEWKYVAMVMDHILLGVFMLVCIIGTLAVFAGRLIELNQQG

Row | Substance | Binding affinity [Ru]
1 | 6mer-1-374 (KKQFQK) | 148
2 | 6mer-1-296 (RKSIRR) | 121
3 | 6mer-1-271 (RRQVSK) | 122
4 | 6mer-1-237 (RKSRYK) | 137
5 | 6mer-1-228 (KRVIYK) | 139
6 | 6mer-1-346 (KKRIYR) | 123
7 | 6mer-1-239 (RKVLCR) | 136
8 | 6mer-1-260 (RKQRTK) | 141

same assay, conditions: 6mer-2 Top sequence; SPR; peptides tested at 10 μM

Row | Substance | Binding affinity [Ru]
9 | 6mer-2-67 (KLFCKK) | 124
10 | 6mer-2-126 (KWLYRR) | 148
11 | 6mer-2-5 (RWVSKR) | 124
12 | 6mer-2-6 (KSICRR) | 122
13 | 6mer-2-125 (KVQLRR) | 142
14 | 6mer-2-191 (RQLLKR) | 154
15 | 6mer-2-35 (RWISRK) | 148
16 | 6mer-2-4 (RSYYRR) | 125
17 | 6mer-2-193 (KWISKR) | 127
18 | 6mer-2-155 (KGVYKK) | 139
19 | 6mer-2-113 (KRYSRK) | 145
20 | 6mer-2-168 (RVFLKR) | 135
21 | 6mer-2-17 (RWVTRR) | 142

same assay, conditions: SPR, Resonance Units; 5mer Bottom sequence (bottom combinations); peptides tested at 10 μM

Row | Substance | Binding affinity [Ru]
22 | 5mer-1087 (KKKKR) | 11
23 | 5mer-707 (KIEAK) | 32
24 | 5mer-1063 (RPHVK) | 20
25 | 5mer-638 (KHCIR) | 33
26 | 5mer-906 (RKHAK) | 31
27 | 5mer-915 (KMTHR) | 28
28 | 5mer-1081 (RPNVR) | 13
29 | 5mer-1077 (KADMK) | 12
30 | 5mer-640 (KNPHK) | 15
31 | 5mer-926 (RNCWK) | 22
32 | 5mer-661 (RCNMK) | 30
33 | 5mer-704 (RFMGK) | 28
34 | 5mer-1095 (KAEKR) | 27
35 | 5mer-1099 (RATAR) | 14
36 | 5mer-701 (RNHNK) | 22
37 | 5mer-1031 (RKEER) | 13
38 | 5mer-1054 (RNKVR) | 21
39 | 5mer-777 (RYNWK) | 28
40 | 5mer-652 (RCAAR) | 23
41 | 5mer-907 (KDSVR) | 18
42 | 5mer-689 (RFSDK) | 20

same assay, conditions: SPR, Resonance Units; peptides tested at 10 μM; 6mer-1 Bottom sequence

Row | Substance | Binding affinity [Ru]
43 | 6mer-1-1174 (RKDAIR) | 30
44 | 6mer-1-998 (KRNPVK) | 41
45 | 6mer-1-1127 (RKMMMK) | 34
46 | 6mer-1-1098 (RKKDMR) | 42
47 | 6mer-1-1078 (RRPDIK) | 25

same assay, conditions: SPR, Resonance Units; peptides tested at 10 μM; 6mer-1 Bottom sequence (Table 11)

Row | Substance | Binding affinity [Ru]
48 | 6mer-1-619 (KKIDKR) | 23
49 | 6mer-1-632 (RKDTAR) | 17
50 | 6mer-1-777 (RRHNHR) | 16
51 | 6mer-1-717 (KRHEDR) | 22
52 | 6mer-1-746 (RKMSVK) | 24
53 | 6mer-1-625 (KREDKK) | 33
54 | 6mer-1-613 (KRIMKK) | 14
55 | 6mer-1-657 (RRCTVR) | 17

same assay, conditions: SPR, Resonance Units; peptides tested at 10 μM; 6mer-2 Bottom sequence

Row | Substance | Binding affinity [Ru]
56 | 6mer-2-865 (RHCNRK) | 16
57 | 6mer-2-930 (RTWIKR) | 37
58 | 6mer-2-640 (KFKKKR) | 21
59 | 6mer-2-934 (KYKDRR) | 26
60 | 6mer-2-746 (RIKVRK) | 26
61 | 6mer-2-784 (KAEWRK) | 26
62 | 6mer-2-875 (RIDHRK) | 13
63 | 6mer-2-610 (RKNPKR) | 32
64 | 6mer-2-696 (KFTKKK) | 20
65 | 6mer-2-850 (KTSMKR) | 16
66 | 6mer-2-905 (RPKERR) | 26
67 | 6mer-2-800 (RTAWKK) | 11
68 | 6mer-2-664 (KCCWKK) | 11

same assay, conditions: SPR, Resonance Units; peptides tested at 10 μM; 6mer-2 Top sequence

Row | Substance | Binding affinity [Ru]
69 | 6mer-2-462 (KQICKR) | 145
70 | 6mer-2-408 (KQIYRR) | 139
71 | 6mer-2-563 (KGYQKR) | 131
72 | 6mer-2-570 (RVYYKR) | 148
73 | 6mer-2-538 (KQFCKK) | 125
74 | 6mer-2-415 (KGRCKK) | 149
75 | 6mer-2-418 (RVQYKK) | 121
76 | 6mer-2-526 (RVLLRK) | 144
77 | 6mer-2-497 (KSYTRR) | 148
78 | 6mer-2-487 (KSYTKR) | 121
79 | 6mer-2-533 (KRLLKR) | 142
80 | 6mer-2-419 (RSRYKK) | 154

same assay, conditions: SPR, Resonance Units; peptides tested at 10 μM; 6mer-2 Top sequence (Table 12)

Row | Substance | Binding affinity [Ru]
81 | 6mer-2-309 (KRRRRR) | 151
82 | 6mer-2-271 (RLFQKK) | 131
83 | 6mer-2-305 (KQFYKK) | 154
84 | 6mer-2-307 (RLRSKK) | 141
85 | 6mer-2-289 (RLLQKK) | 146
86 | 6mer-2-282 (RQQYRK) | 151
87 | 6mer-2-346 (KRFSKK) | 153
88 | 6mer-2-287 (RLYLKR) | 124
89 | 6mer-2-273 (KLRQRR) | 131
90 | 6mer-2-300 (RWRLKK) | 153

same assay, conditions: SPR, peptides at 10 μM; 6mer-2 Bottom sequence

Row | Substance | Binding affinity [Ru]
91 | 6mer-2-1165 (RIKAKK) | 30
92 | 6mer-2-1027 (KTPVKK) | 32
93 | 6mer-2-1083 (KTKGKR) | 39
94 | 6mer-2-1142 (KKAMKR) | 30
95 | 6mer-2-1016 (RNEEKR) | 41
96 | 6mer-2-1026 (KENHRK) | 33

same assay, conditions: SPR, peptides tested at 10 μM; 5mer Top sequence

Row | Substance | Binding affinity [Ru]
97 | 5mer-87 (RQITR) | 55
98 | 5mer-404 (KGYLK) | 83
99 | 5mer-65 (RQIRR) | 67
100 | 5mer-357 (RGFRK) | 54
101 | 5mer-128 (RGVCR) | 56
102 | 5mer-10 (RVQRR) | 55
103 | 5mer-388 (KLFCK) | 78
104 | 5mer-149 (KQFLR) | 80
105 | 5mer-8 (RQRSR) | 51
106 | 5mer-102 (RGFSK) | 82
107 | 5mer-37 (RRLSR) | 72
108 | 5mer-358 (KVRSK) | 50
109 | 5mer-97 (KRQLR) | 52
110 | 5mer-20 (RGRYK) | 78
111 | 5mer-509 (RVQRK) | 61
112 | 5mer-140 (KWRLR) | 69
113 | 5mer-338 (RWILR) | 61
114 | 5mer-431 (KVQLK) | 81
115 | 5mer-334 (KRFYK) | 64
116 | 5mer-25 (KVVYK) | 60

same assay, conditions: SPR, peptides tested at 10 μM; 5mer Top sequence (top combinations)

Row | Substance | Binding affinity [Ru]
117 | 5mer-561 (KWRCK) | 72
118 | 5mer-222 (KWLLR) | 86

same assay, conditions: SPR, peptides tested at 10 μM; 6mer-1 Bottom sequence (Table 11)

Row | Substance | Binding affinity [Ru]
119 | 6mer-1-841 (KKDAPR) | 30
120 | 6mer-1-875 (KKTNGR) | 33
121 | 6mer-1-947 (KRTKGR) | 31
122 | 6mer-1-857 (KRPAFK) | 14
123 | 6mer-1-802 (RKYHGR) | 32
124 | 6mer-1-970 (RRCCAR) | 38
125 | 6mer-1-934 (KRPPGK) | 39
126 | 6mer-1-969 (RKDHWR) | 33
127 | 6mer-1-927 (KRESHR) | 37
128 | 6mer-1-988 (KRYPDR) | 24
129 | 6mer-1-846 (RKDAEK) | 28

same assay, conditions: SPR, peptides tested at 10 μM; 6mer-1 Top sequence

Row | Substance | Binding affinity [Ru]
130 | 6mer-1-569 (RRVITK) | 148
131 | 6mer-1-478 (RKVRYK) | 139
132 | 6mer-1-504 (RRSITR) | 122
133 | 6mer-1-527 (KKGIYR) | 142
134 | 6mer-1-533 (RKWFSR) | 145
135 | 6mer-1-436 (KKLFYK) | 148
136 | 6mer-1-509 (RKWLRK) | 128

same assay, conditions: SPR, peptides tested at 10 μM; 6mer-1 Top sequence (top combinations)

Row | Substance | Binding affinity [Ru]
137 | 6mer-1-153 (KKWQQR) | 146
138 | 6mer-1-175 (RRRIQK) | 137
139 | 6mer-1-141 (RKLYQK) | 141
140 | 6mer-1-94 (RKVQQK) | 142
141 | 6mer-1-123 (RRGVQK) | 148
142 | 6mer-1-161 (KRRYCK) | 139
143 | 6mer-1-7 (KRQYSK) | 126

same assay, conditions: SPR; XRRGVRR-7mer and RRGVRRX-7mer

Row | Substance | Binding affinity, values relative to the RRGVRR sequence
144 | 3673 (RRGVRRY) [compound 3673] | 101
145 | 3659 (DRRGVRR) [compound 3659] | 159
146 | 3651 (SRRGVRR) [compound 3651] | 117

same assay, conditions: SPR; peptides tested at 10 μM; 5mer Bottom sequence

Row | Substance | Binding affinity [Ru]
147 | 5mer-882 (REEGR) | 18
148 | 5mer-1195 (RHWEK) | 19
149 | 5mer-1160 (KETWR) | 14
150 | 5mer-1189 (RKMDK) | 11
151 | 5mer-1183 (RHAPK) | 13
